In this data set the target is Cas9 (SpCas9) (Streptococcus pyogenes, UniProt Q99ZW2 1-1368). Briefly: HDX-MS; protein:RNA 1:10 molar ratio; sgRNA without DNA; 9 peptides with reduced and 21 with increased deuterium uptake on binding; HDX buffer, pH and temperature not given in the material (section 3.4 text absent); complex at 1:10 Cas9:sgRNA formed immediately before exchange, D2O incubation 1-480 min. The note with it: protein: recombinant; tags: His-tag removed with TEV protease; single-strand sgRNA with repeat-antirepeat and stem-loops.
Sequence of Cas9 (SpCas9) (Q99ZW2 whole entry): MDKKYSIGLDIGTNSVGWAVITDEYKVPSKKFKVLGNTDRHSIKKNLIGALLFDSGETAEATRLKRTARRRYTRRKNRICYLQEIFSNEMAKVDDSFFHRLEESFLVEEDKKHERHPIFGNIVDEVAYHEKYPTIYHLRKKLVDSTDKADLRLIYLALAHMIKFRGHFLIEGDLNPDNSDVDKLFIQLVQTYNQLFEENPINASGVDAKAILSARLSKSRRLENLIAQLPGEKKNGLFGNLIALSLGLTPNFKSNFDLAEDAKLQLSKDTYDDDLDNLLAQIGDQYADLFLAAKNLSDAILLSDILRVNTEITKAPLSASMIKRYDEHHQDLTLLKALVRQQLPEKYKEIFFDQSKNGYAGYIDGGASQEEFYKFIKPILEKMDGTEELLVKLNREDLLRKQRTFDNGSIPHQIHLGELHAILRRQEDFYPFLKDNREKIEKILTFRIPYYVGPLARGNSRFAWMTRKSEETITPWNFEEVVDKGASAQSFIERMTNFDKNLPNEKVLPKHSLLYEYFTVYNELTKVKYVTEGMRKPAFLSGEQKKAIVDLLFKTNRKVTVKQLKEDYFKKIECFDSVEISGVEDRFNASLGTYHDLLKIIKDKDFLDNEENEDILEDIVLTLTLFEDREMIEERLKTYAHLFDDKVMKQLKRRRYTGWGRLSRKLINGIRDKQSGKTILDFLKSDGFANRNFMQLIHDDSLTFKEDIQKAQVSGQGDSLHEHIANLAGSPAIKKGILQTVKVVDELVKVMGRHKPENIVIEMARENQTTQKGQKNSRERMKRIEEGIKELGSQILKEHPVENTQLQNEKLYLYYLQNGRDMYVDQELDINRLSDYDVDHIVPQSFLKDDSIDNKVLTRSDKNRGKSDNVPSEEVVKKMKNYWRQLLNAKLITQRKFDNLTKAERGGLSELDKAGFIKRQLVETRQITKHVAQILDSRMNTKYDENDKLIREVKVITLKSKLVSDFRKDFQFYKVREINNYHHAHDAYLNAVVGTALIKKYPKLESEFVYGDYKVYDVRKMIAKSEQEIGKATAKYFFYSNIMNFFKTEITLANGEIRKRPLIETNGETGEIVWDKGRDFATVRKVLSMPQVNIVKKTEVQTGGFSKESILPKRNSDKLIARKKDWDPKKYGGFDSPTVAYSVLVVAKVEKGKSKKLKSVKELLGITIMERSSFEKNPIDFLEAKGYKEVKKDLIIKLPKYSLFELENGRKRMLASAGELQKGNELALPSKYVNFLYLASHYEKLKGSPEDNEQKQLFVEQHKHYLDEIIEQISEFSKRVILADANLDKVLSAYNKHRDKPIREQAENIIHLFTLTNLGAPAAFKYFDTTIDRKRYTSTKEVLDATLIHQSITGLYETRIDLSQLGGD

B1: sgRNA (103 nt) (structured_RNA)
RNA: GGUUGGACAUGCUCGACAUUCGUUUUAGAGCUAGAAAUAGCAAGUUAAAAUAAGGCUAGUCCGUUAUCAACUUGAAAAAGUGGCACCGAGUCGGUGCUUUUUU
Take B1: the binding result is on record as “binds”.

Source of the values: PMC8834707, “Probing the Dynamics of Streptococcus pyogenes Cas9 Endonuclease Bound to the sgRNA Complex Using Hydrogen-Deuterium Exchange Mass Spectrometry”.
